Assay results: paper PMC3988174, “A Split-Ubiquitin Yeast Two-Hybrid Screen to Examine the Substrate Specificity of atToc159 and atToc132, Two Arabidopsis Chloroplast Preprotein Import Receptors” (PLoS ONE, 2014)

B1: AIG2-like avirulence induced gene family protein (natural protein, Arabidopsis thaliana, UniProt Q9MBH2 1-169, looked up)
chain: MTSSDKSLSHDVFVYGSFQEPSVVNLILECSPVMVPAQLHGYHVYRLKGRLHACISPSENGLINGKILTGLTDSQLENLDMIEGSEYVRKTVEVVLTDTSEKKQVETYVWANKDDPNLYGEWDFEEWRRLHMDKFIEASTKFIEWKKNPDGRSREEFEKFVFDDPPTAA
B2: Cytochrome b561-2 (natural protein, Arabidopsis thaliana, UniProt Q8L856 1-239, looked up)
chain: MAVRINAMAVTFVAHALAVIAAIMVLVWSISYRGGLAWEATNKNLIFNLHPVLMLIGFIILGGEAIISYKSLPLEKPVKKLIHLILHAIALALGIFGICAAFKNHNESHIPNLYSLHSWIGIGVISLYGFQWVYSFIVFFFPGGSTNLKSGLLPWHAMLGLFVYILAVGNAALGFLEKLTFLENGGLDKYGSEAFLINFTAIITILFGAFVVLTASAESPSPSPSVSNDDSVDFSYSAI
B3: Photosystem I light harvesting complex gene 3 (natural protein, Arabidopsis thaliana, UniProt Q9SY97 1-273, looked up)
chain: MAAQALVSSSLTSSVQTARQIFGSKPVASASQKKSSFVVKAAATPPVKQGANRPLWFASSQSLSYLDGSLPGDYGFDPLGLSDPEGTGGFIEPRWLAYGEIINGRFAMLGAAGAIAPEILGKAGLIPAETALPWFQTGVIPPAGTYTYWADNYTLFVLEMALMGFAEHRRLQDWYNPGSMGKQYFLGLEKGLAGSGNPAYPGGPFFNPLGFGKDEKSLKELKLKEVKNGRLAMLAILGYFIQGLVTGVGPYQNLLDHLADPVNNNVLTSLKFH
B4: Photosystem I reaction center subunit PSI-N (natural protein, Arabidopsis thaliana, UniProt P49107 1-171, looked up)
chain: MAAMNSSVLTCSYAIAGSGSVELNQKVGLVNSSVGFGQKKQMIMPVIKAQRVVGDDVDGSNGRRSAMVFLAATLFSTAAVSASANAGVIDEYLERSKTNKELNDKKRLATSGANFARAFTVQFGSCKFPENFTGCQDLAKQKKVPFISEDIALECEGKDKYKCGSNVFWKW
B5: Photosystem I light harvesting complex gene 2 (natural protein, Arabidopsis thaliana, UniProt Q9SYW8 1-257, looked up)
chain: MASSLCASSAIAAISSPSFLGGKKLRLKKKLTVPAVSRPDASVRAVAADPDRPIWFPGSTPPEWLDGSLPGDFGFDPLGLSSDPDSLKWNVQAEIVHCRWAMLGAAGIFIPEFLTKIGILNTPSWYTAGEQEYFTDKTTLFVVELILIGWAEGRRWADIIKPGSVNTDPVFPNNKLTGTDVGYPGGLWFDPLGWGSGSPAKLKELRTKEIKNGRLAMLAVMGAWFQHIYTGTGPIDNLFAHLADPGHATIFAAFTPK
B6: Photosystem I light harvesting complex gene 1 (natural protein, Arabidopsis thaliana, UniProt Q01667 1-241, looked up)
chain: MASNSLMSCGIAAVYPSLLSSSKSKFVSAGVPLPNAGNVGRIRMAAHWMPGEPRPAYLDGSAPGDFGFDPLGLGEVPANLERYKESELIHCRWAMLAVPGILVPEALGYGNWVKAQEWAALPGGQATYLGNPVPWGTLPTILAIEFLAIAFVEHQRSMEKDPEKKKYPGGAFDPLGYSKDPKKLEELKVKEIKNGRLALLAFVGFCVQQSAYPGTGPLENLATHLADPWHNNIGDIVIPFN
B7: Protochlorophyllide oxidoreductase B (natural protein, Arabidopsis thaliana, UniProt P21218 1-401, looked up)
chain: MALQAASLVSSAFSVRKDAKLNASSSSFKDSSLFGASITDQIKSEHGSSSLRFKREQSLRNLAIRAQTAATSSPTVTKSVDGKKTLRKGNVVVTGASSGLGLATAKALAETGKWNVIMACRDFLKAERAAKSVGMPKDSYTVMHLDLASLDSVRQFVDNFRRTETPLDVLVCNAAVYFPTAKEPTYSAEGFELSVATNHLGHFLLARLLLDDLKKSDYPSKRLIIVGSITGNTNTLAGNVPPKANLGDLRGLAGGLNGLNSSAMIDGGDFDGAKAYKDSKVCNMLTMQEFHRRFHEETGVTFASLYPGCIASTGLFREHIPLFRALFPPFQKYITKGYVSETESGKRLAQVVSDPSLTKSGVYWSWNNASASFENQLSEEASDVEKARKVWEISEKLVGLA
B8: Photosystem I subunit F (natural protein, Arabidopsis thaliana, UniProt Q9SHE8 1-221, looked up)
chain: MSLTIPANLVLNPRSNKSLTQSVPKSSARFVCSDDKSSSSTPQSMKAFSAAVALSSILLSAPMPAVADISGLTPCKDSKQFAKREKQQIKKLESSLKLYAPESAPALALNAQIEKTKRRFDNYGKYGLLCGSDGLPHLIVNGDQRHWGEFITPGILFLYIAGWIGWVGRSYLIAISGEKKPAMKEIIIDVPLASRIIFRGFIWPVAAYREFLNGDLIAKDV
B9: Violaxanthin Deepoxidase (natural protein, Arabidopsis thaliana, UniProt Q39249 1-462, looked up)
chain: MAVATHCFTSPCHDRIRFFSSDDGIGRLGITRKRINGTFLLKILPPIQSADLRTTGGRSSRPLSAFRSGFSKGIFDIVPLPSKNELKELTAPLLLKLVGVLACAFLIVPSADAVDALKTCACLLKGCRIELAKCIANPACAANVACLQTCNNRPDETECQIKCGDLFENSVVDEFNECAVSRKKCVPRKSDLGEFPAPDPSVLVQNFNISDFNGKWYITSGLNPTFDAFDCQLHEFHTEGDNKLVGNISWRIKTLDSGFFTRSAVQKFVQDPNQPGVLYNHDNEYLHYQDDWYILSSKIENKPEDYIFVYYRGRNDAWDGYGGAVVYTRSSVLPNSIIPELEKAAKSIGRDFSTFIRTDNTCGPEPALVERIEKTVEEGERIIVKEVEEIEEEVEKEVEKVGRTEMTLFQRLAEGFNELKQDEENFVRELSKEEMEFLDEIKMEASEVEKLFGKALPIRKVR
B10: Cysteine synthase (natural protein)
chain: not shown
B11: 5′-Adenylylsulfate reductase 2 (natural protein, Arabidopsis thaliana, UniProt P92981 1-454, looked up)
chain: MALAVTSSSTAISGSSFSRSGASSESKALQICSIRLSDRTHLSQRRYSMKPLNAESHSRSESWVTRASTLIAPEVEEKGGEVEDFEQLAKKLEDASPLEIMDKALERFGDQIAIAFSGAEDVALIEYARLTGKPFRVFSLDTGRLNPETYRLFDAVEKQYGIRIEYMFPDAVEVQALVRNKGLFSFYEDGHQECCRVRKVRPLRRALKGLKAWITGQRKDQSPGTRSEIPIVQVDPVFEGLDGGVGSLVKWNPLANVEGADVWNFLRTMDVPVNALHAQGYVSIGCEPCTRPVLPGQHEREGRWWWEDAKAKECGLHKGNIKEEDGAADSKPAAVQEIFESNNVVALSKGGVENLLKLENRKEAWLVVLYAPWCPFCQAMEASYIELAEKLAGKGVKVAKFRADGEQKEFAKQELQLGSFPTILLFPKRAPRAIKYPSEHRDVDSLMSFVNLLR
B12: Low PSII accumulation 3 protein (natural protein)
chain: not shown
B13: Ferredoxin-thioredoxin reductase subunit A (natural protein, Arabidopsis thaliana, UniProt Q9SJ89 1-146, looked up)
chain: MNLQAVSCSFGFLSSPLGVTPRTSFRRFVIRAKTEPSEKSVEIMRKFSEQYARRSGTYFCVDKGVTSVVIKGLAEHKDSYGAPLCPCRHYDDKAAEVGQGFWNCPCVPMRERKECHCMLFLTPDNDFAGKDQTITSDEIKETTANM

Biological target: T1, atToc132 A- plus G-domains bait (Arabidopsis thaliana, UniProt Q9SLF3 1-794)
T1 construct: atToc132, A. thaliana, A- and G-domains, amino acids 1-794; also called Toc132AG; atToc132AG; source: yeast two-hybrid fusion (pBT3-STE, S. cerevisiae NMY51); not shown: STE2 leader (N-terminal 13 amino acids of S. cerevisiae Ste2), N-terminal, kept; Cub-LexA-VP16, C-terminal, kept
Assay: two-hybrid; pairwise split-ubiquitin yeast two-hybrid of isolated NubG-preys with Toc159G, Toc132G or Toc132AG bait in NMY51; growth on SD-LWHA (3-AT) and quantitative β-Gal assay, activity relative to a reference bait set to 100%
Settings: partners not purified

T1 sequence (Q9SLF3 1-794): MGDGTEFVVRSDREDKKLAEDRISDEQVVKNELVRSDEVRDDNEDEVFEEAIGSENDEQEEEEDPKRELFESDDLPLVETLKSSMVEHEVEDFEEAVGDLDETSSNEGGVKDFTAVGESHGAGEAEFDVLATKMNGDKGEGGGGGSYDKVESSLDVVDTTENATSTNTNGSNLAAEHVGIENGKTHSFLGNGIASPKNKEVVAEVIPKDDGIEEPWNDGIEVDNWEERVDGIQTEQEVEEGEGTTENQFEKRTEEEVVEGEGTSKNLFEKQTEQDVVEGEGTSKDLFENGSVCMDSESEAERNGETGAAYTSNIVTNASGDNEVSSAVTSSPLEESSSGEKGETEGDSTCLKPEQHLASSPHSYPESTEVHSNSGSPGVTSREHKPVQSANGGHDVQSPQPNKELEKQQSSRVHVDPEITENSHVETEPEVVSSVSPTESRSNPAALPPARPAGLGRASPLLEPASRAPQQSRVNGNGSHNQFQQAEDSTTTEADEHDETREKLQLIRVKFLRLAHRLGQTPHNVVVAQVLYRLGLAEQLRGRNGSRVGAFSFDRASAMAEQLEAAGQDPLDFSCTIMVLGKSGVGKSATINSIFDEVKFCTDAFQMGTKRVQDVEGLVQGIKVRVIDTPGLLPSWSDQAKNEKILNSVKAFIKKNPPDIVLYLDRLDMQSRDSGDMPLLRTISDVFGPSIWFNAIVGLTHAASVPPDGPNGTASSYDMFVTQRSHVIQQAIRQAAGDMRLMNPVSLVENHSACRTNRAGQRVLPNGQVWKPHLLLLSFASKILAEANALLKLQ

First: B1
Second: B2
The “% increase in strength of interaction (β-Gal) with Toc132AG against Toc132G” value of the first is lower: 41.3% for the first, 49.6% for the second.

Compared with B10, B11 is lower in “% increase in strength of interaction (β-Gal) with Toc132AG against Toc132G” value: 175% for the first, 24.5% for the second.

Compared with B3, B4 is higher in “relative strength of interaction (β-Gal) with Toc132AG against Toc132G, % change” value (shortened to “relative strength of interaction … % change”): -26.8% for the first, -25.4% for the second.

First: B5
Second: B6
The “relative strength of interaction … % change” value of the first is lower: -36.4% for the first, -24.5% for the second.

First: B7
Second: B8
The “relative strength of interaction … % change” value of the first is lower: -34.7% for the first, -25.5% for the second.

Compared with B9, B12 is higher in “relative strength of interaction … % change” value: -29.9% for the first, -11.7% for the second.

B13 was tested, and the “relative strength of interaction … % change” value was -15%.
